# B1: 37TD-WT (wild-type p53 tetramerisation domain peptide, residues 320-356) (peptide, UniProt P04637 320-356, looked up)
# chain: Ac-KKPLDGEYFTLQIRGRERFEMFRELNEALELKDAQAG-NH2
# modifications: also: 13C-methyl Met340 in the isotope-labelled form
# notes: p53 tetramerisation domain, residues 320-356 (37 amino acids); Made twice: with normal methionine (used in native MS and CD) and with 13C-methyl methionine (used in NMR); also called WT TD; p53TD; source: synthetic peptide (manual Fmoc/tBu SPPS), purified by semi-preparative HPLC
# Target: the molecule itself
# Test: native MS; peptide alone in 200 mM ammonium acetate, pH 7; high monomer concentration (80 uM WT and T329I, 100 uM R337H), cone voltage 40 V (raised to 80-120 V to dissociate the oligomers); positive ESI, TOF and ion mobility-TOF; WT and R337H not isotope-labelled
protein,measurement,value
B1,stoichiometry N,4

# Reference: publication PMC10296842, “How Do Cancer-Related Mutations Affect the Oligomerisation State of the p53 Tetramerisation Domain?” (Current Issues in Molecular Biology, 2023)
